The record followed here is patent publication US20100021421A1 (MCGILL UNIVERSITY, published 2010).

Assay [1] concerns the target T1, recombinant mouse IL-15Ralpha-Fc (mouse, UniProt Q60819 33-205).
T1 construct: Bought from R&D Systems and amine-coupled to a CM5 chip (1300 RU); also called rmIL-15Rα-Fc; rIL-15Rα-Fc; not shown: Fc part of the commercial fusion
T1 sequence (looked up): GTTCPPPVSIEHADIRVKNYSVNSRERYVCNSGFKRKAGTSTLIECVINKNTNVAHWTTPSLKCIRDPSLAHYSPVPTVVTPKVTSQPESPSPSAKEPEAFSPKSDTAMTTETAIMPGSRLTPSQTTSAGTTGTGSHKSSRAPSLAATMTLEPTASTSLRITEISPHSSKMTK
As to the kind of experiment: SPR (BIACORE 3000), rIL-15Rα-Fc amine-coupled to CM5 chip, analyte injected, 1:1 interaction model; purified GIFT15 as analyte. The protocol:
mGIFT15 was purified by immunoaffinity column packed using CNBr-sepharose (Amersham, N.J., USA) according to manufacturer's instructions. The binding interaction between mGIFT15 and rmIL-15Rα-Fc was examined in real-time using a BIACORE 3000 with research-grade CM5 sensor chips (Biacore AB, Uppsala, Sweden). Based on the manufacturer's recommendations, active CM5 surfaces were prepared by immobilizing rIL-15Rα-Fc (10 μg/mL in 10 mM sodium acetate pH 5.0) using the Amine Coupling Kit (Biacore AB) and HBS-M running buffer. Corresponding reference surfaces were prepared in the similar manner in the absence of any ligand. As a positive control, rIL-15 was injected at 50 μL/min (180 sec association+180 sec dissociation) over the reference and amine-coupled rIL-15Rα-Fc surfaces (1300 RU). Regeneration was achieved using two 30 second pulses of HBS-M containing 0.5 M NaCl, 50 mM EDTA, and 0.05% (v/v) TritonX-100 or Empigen. For the test sample, purified mGIFT15 was injected over the same sensor chip surfaces and regenerated in an identical manner. All binding data presented were “double-referenced” and analyzed according to a 1:1 interaction model using BIAevaluation 4.1 (Biacore AB).
(SPR reads the build-up and loss of mass on a sensor chip optically.)

In assay [2] the target is T2, recombinant mouse IL-15Ralpha-Fc (mouse), Q60819.
T2 chain: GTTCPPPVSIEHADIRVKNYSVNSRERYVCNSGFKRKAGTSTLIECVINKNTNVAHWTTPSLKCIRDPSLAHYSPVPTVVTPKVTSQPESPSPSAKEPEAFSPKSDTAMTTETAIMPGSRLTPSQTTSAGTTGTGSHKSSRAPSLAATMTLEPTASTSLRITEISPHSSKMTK
As to the kind of experiment: SPR (BIACORE 3000), rIL-15Rα-Fc amine-coupled to CM5 chip, analyte injected, 1:1 interaction model; rIL-15 as analyte. The settings on record: remark: other sources report otherwise.

B1: mouse GM-CSF and IL-15 fusion protein (fusokine) mGIFT15 (ligand)
chain: APTRSPITVTRPWKHVEAIKEALNLLDDMPVTLNEEVEVVSNEFSFKKLTCVQTRLKIFEQGLRGNFTKLKGALNMTASYYQTYCPPTPETDCETQVTTYADFIDSLKTFLTDDPGRRAIMKILKPYMRNTSISCYLCFLLNSHFLTEAGIHVFILGCVSVGLPKTEANWIDVRYDLEKIESLIQSIHIDTTLYTDSDFHPSCKVTAMNCFLLELQVILHEYSNMTLNETVRNVLYLANSTLSSNKNVAESGCKECEELEEKTFTEFLQSFIRIVQMFINTS
notes: also called purified GIFT15; purified mGIFT15
With B1, the Kd (commonly the equilibrium constant for the complex coming apart) in assay [1] worked out at 1.4 nM.

B2: recombinant mouse IL-15, P48346 49-162 (ligand, UniProt P48346 49-162, looked up)
chain: NWIDVRYDLEKIESLIQSIHIDTTLYTDSDFHPSCKVTAMNCFLLELQVILHEYSNMTLNETVRNVLYLANSTLSSNKNVAESGCKECEELEEKTFTEFLQSFIRIVQMFINTS
For the molecule B2, in assay [2], the Kd worked out at 3 nM.
